Experimental data from US20160304622A1 (GENEFRONTIER, published 2016).

Experiments:
Experiment in all cases: immunoblotting after reducing SDS-PAGE
[1] = target: T1, purified human MMP-1 (Daiichi Fine Chemical) (human, UniProt P03956 20-469, limits assumed)
T1 sequence (looked up): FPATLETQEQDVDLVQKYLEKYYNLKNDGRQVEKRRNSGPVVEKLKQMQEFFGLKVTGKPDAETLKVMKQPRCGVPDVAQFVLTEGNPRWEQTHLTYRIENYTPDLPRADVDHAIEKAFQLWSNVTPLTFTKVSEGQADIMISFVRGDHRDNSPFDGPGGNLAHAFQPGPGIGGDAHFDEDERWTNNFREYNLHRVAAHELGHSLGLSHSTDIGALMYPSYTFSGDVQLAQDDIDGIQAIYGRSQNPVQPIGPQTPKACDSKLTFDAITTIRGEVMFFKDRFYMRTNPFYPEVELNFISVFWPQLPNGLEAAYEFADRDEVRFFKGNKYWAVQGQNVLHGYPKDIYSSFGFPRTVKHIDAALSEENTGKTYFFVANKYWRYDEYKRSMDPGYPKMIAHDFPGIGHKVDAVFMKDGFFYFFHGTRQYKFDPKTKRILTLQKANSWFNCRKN
Source text: (§1) Recombinant proteins of human ADAMTS1 (R&D Systems), ADAMTS4, ADAMTS5 (R&D Systems), ADAMTS15 (R&D Systems), ADAM10 (R&D Systems), ADAM12 (Mochida Pharmaceutical Co., Ltd., Tokyo, Japan), ADAM17 (R&D Systems) and MMP-13 (Millipore, Billerica, Mass.) and purified human MMP-1, MMP-2, MMP-3 and MMP-9 (Daiichi Fine Chemical, Co., Ltd., Toyama, Japan) were subjected to sodium dodecyl sulfate-polyacrylamide gel electrophoresis (SDS-PAGE) under reducing conditions, and the samples resolved on the gels were transferred onto polyvinylidene difluoride (PVDF) membranes. […] After washing with phosphate buffered saline containing 0.1% Tween 20, the membranes were reacted with horseradish peroxidase-conjugated secondary antibody against human IgG (Invitrogen, Carlsbad, Calif.) for 1 h at room temperature. A chemiluminescence reagent (Pierce ECL western blotting substrate; Thermo Fisher Scientific, Waltham, Mass.) was used to make the labeled protein bands visible. All the samples were also examined on silver-stained gels, which were prepared by silver stain kit (Cosmo Bio Co., Ltd, […].).

[2] = target: purified human MMP-9 (Daiichi Fine Chemical) (human, UniProt P14780 20-707, limits assumed)
Source text: as §1

[3] = target: T2, recombinant human ADAMTS15 (R&D Systems) (human, UniProt Q8TE58 213-950, limits assumed)
T2 sequence (looked up): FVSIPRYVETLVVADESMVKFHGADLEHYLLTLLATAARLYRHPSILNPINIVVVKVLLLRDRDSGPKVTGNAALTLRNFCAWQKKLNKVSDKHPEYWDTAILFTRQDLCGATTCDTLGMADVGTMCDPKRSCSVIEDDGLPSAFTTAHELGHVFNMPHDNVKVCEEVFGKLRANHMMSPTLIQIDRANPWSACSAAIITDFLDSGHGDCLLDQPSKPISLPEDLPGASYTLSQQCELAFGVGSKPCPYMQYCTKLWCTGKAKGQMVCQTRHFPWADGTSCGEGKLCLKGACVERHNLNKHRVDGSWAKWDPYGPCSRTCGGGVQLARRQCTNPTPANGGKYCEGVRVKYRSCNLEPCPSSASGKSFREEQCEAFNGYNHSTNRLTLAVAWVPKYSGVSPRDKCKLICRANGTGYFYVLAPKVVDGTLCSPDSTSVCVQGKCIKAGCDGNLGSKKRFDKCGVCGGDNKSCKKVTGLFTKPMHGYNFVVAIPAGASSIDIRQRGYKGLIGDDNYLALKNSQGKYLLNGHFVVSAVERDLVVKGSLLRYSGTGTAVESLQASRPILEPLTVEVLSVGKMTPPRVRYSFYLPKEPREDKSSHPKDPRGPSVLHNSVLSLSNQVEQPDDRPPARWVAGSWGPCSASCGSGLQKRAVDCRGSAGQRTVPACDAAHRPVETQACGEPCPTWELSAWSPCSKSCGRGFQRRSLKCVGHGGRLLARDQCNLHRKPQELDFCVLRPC
Source text: as §1

[4] = target: T3, purified human MMP-2 (Daiichi Fine Chemical) (human, UniProt P08253 30-660, limits assumed)
T3 sequence (looked up): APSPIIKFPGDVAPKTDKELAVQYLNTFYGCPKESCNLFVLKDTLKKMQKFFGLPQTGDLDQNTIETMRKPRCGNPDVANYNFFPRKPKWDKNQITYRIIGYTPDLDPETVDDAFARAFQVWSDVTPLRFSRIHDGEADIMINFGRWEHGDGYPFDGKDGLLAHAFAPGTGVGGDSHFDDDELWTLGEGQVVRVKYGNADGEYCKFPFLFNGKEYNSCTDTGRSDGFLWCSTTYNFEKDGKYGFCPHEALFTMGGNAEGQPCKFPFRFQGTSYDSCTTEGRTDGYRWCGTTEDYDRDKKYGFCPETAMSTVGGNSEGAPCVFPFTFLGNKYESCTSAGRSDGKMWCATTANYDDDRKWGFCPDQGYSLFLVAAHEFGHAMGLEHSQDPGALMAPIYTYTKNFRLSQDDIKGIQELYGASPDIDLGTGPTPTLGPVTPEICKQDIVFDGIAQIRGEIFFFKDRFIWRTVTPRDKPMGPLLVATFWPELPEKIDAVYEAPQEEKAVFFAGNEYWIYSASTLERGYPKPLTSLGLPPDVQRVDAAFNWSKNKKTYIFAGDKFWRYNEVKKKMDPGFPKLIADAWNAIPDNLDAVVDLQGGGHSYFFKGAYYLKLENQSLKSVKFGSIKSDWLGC
Source text: as §1

[5] = target: T4, recombinant human ADAM10 (R&D Systems) (human, UniProt O14672 214-672, limits assumed)
T4 sequence (looked up): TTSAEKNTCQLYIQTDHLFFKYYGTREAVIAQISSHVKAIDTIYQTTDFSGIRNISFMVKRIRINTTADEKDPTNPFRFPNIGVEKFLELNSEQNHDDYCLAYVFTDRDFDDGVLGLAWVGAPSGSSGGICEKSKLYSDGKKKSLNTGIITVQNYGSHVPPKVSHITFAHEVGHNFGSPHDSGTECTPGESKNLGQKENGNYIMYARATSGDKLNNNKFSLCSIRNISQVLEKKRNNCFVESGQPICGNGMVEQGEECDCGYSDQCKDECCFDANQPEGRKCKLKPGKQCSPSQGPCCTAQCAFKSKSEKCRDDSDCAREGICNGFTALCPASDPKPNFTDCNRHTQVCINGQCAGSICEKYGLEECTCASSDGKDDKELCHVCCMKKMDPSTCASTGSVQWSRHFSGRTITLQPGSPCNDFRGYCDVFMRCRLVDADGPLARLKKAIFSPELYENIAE
Source text: as §1

[6] = target: recombinant human MMP-13 (Millipore) (human, UniProt P45452 20-471, limits assumed)
Source text: as §1

Measured: binding result

Sequence of purified human MMP-9 (Daiichi Fine Chemical) (P14780 20-707 limits assumed): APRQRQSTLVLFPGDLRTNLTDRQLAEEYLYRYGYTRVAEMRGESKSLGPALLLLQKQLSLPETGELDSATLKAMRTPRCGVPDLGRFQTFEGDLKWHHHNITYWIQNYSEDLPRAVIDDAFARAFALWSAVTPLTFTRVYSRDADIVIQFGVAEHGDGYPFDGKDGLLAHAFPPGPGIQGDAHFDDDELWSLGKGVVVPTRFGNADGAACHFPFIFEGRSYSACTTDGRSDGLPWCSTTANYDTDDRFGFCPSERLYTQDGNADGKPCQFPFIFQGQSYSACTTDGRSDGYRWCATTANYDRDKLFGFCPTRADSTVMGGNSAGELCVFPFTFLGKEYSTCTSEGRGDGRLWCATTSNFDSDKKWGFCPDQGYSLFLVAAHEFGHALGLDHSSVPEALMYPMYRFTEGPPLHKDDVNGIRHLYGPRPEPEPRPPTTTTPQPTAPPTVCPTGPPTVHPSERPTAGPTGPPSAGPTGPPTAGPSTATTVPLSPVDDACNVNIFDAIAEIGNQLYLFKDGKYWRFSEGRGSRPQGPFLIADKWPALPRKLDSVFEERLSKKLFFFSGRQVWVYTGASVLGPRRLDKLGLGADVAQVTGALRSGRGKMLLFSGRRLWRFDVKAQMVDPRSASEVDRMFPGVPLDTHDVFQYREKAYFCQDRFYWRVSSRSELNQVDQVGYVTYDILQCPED

B1: Fab of clone 237-53 (Fab, V domains shown)
VH: QVQLVQSGAEVKKPGSSVKVSCKASGGTFSSFAISWVRQAPGQGLEWMGGIFPIFGQANYAQKFQGRVTITADESTSTAYMELSSLRSEDTAVYYCARFSDWWEWQMDYWGQGTLVTVSS
VL: DIVMTQSPDSLAVSLGERATINCRSSQSILYSSNNNYLAWYQQKPGQPPKLLIHTASARESGVPDRFSGSGSGTDFTLTISSLQAEDVAVYYCQQYYSVSITFGQGTKVEIKR
no binding (tested: 5 µg/ml): all assays above
